The results in this text go back to publication PMC9973356, “Cryo-EM Structures of AcrD Illuminate a Mechanism for Capturing Aminoglycosides from Its Central Cavity” (mBio, 2023).

The data set deals with the molecule itself. The data set can be described thus: cryo-EM structure; single-particle cryo-EM of 10 µM AcrD in MSP1E3D1 nanodiscs (E. coli total extract lipid; 20 mM Tris-HCl pH 7.5, 100 mM NaCl), no gentamicin; particle ratio of trimer to dimer to monomer approximately 3:5:2.

“And” between values parts separate entries of the source, which are not always exact repeats. Equal entries are not always repeated.

B1: Escherichia coli acriflavine resistance protein D (AcrD) (natural protein)
chain: MANFFIDRPIFAWVLAILLCLTGTLAIFSLPVEQYPDLAPPNVRVTANYPGASAQTLENTVTQVIEQNMTGLDNLMYMSSQSSGTGQASVTLSFKAGTDPDEAVQQVQNQLQSAMRKLPQAVQNQGVTVRKTGDTNILTIAFVSTDGSMDKQDIADYVASNIQDPLSRVNGVGDIDAYGSQYSMRIWLDPAKLNSFQMTAKDVTDAIESQNAQIAVGQLGGTPSVDKQALNATINAQSLLQTPEQFRDITLRVNQDGSEVRLGDVATVEMGAEKYDYLSRFNGKPASGLGVKLASGANEMATAELVLNRLDELAQYFPHGLEYKVAYETTSFVKASIEDVVKTLLEAIALVFLVMYLFLQNFRATLIPTIAVPVVLMGTFSVLYAFGYSVNTLTMFAMVLAIGLLVDDAIVVVENVERIMSEEGLTPREATRKSMGQIQGALVGIAMVLSAVFVPMAFFGGTTGAIYRQFSITIVAAMVLSVLVAMILTPALCATLLKPLKKGEHHGQKGFFAWFNQMFNRNAERYEKGVAKILHRSLRWIVIYVLLLGGMVFLFLRLPTSFLPLEDRGMFTTSVQLPSGSTQQQTLKVVEQIEKYYFTHEKDNIMSVFATVGSGPGGNGQNVARMFIRLKDWSERDSKTGTSFAIIERATKAFNQIKEARVIASSPPAISGLGSSAGFDMELQDHAGAGHDALMAARNQLLALAAENPELTRVRHNGLDDSPQLQIDIDQRKAQALGVAIDDINDTLQTAWGSSYVNDFMDRGRVKKVYVQAAAPYRMLPDDINLWYVRNKDGGMVPFSAFATSRWETGSPRLERYNGYSAVEIVGEAAPGVSTGTAMDIMESLVKQLPNGFGLEWTAMSYQERLSGAQAPALYAISLLVVFLCLAALYESWSVPFSVMLVVPLGVIGALLATWMRGLENDVYFQVGLLTVIGLSAKNAILIVEFANEMNQKGHDLFEATLHACRQRLRPILMTSLAFIFGVLPMATSTGAGSGGQHAVGTGVMGGMISATILAIYFVPLFFVLVRRRFPLKPRPE
notes: AcrD, E. coli, full length; Seen as trimers, dimers and monomers in the same nanodisc sample; The nanodisc scaffold protein MSP1E3D1 (Sigma-Aldrich) is only a tool; also called AcrD aminoglycoside efflux pump; apo-AcrD
Regarding B1, the “stoichiometry N” value was 3 and 2.

As usually defined, the stoichiometry N is the number of molecules, sites or subunits per partner or assembly.
